Laboratory results published in US20040005324A1 (INTRACEL RESOURCES, published 2004).

Experiments:
BSA = BSA (UniProt P02769 25-607); test: ELISA with purified Fab
[1] = molecular target: RSV F glycoprotein of subgroup A isolate SW/669/′59 (respiratory syncytial virus, subgroup A); test: cell-based or functional assay
[2] = molecular target: RSV F glycoprotein of subgroup A isolate Wash/11657/′60 (respiratory syncytial virus, subgroup A); test: cell-based or functional assay
[3] = molecular target: RSV F glycoprotein of subgroup A isolate Wash/Bern/′65 (respiratory syncytial virus, subgroup A); test: cell-based or functional assay
[4] = molecular target: RSV F glycoprotein of subgroup A isolate SL/863/′84 (respiratory syncytial virus, subgroup A); test: cell-based or functional assay
[5] = molecular target: RSV F glycoprotein of subgroup A isolate SL/10849/′84 (respiratory syncytial virus, subgroup A); test: cell-based or functional assay
[6] = molecular target: RSV F glycoprotein of subgroup A isolate SL/10865/′84 (respiratory syncytial virus, subgroup A); test: cell-based or functional assay
[7] = molecular target: RSV F glycoprotein of subgroup A isolate OK/9970/′85 (respiratory syncytial virus, subgroup A); test: cell-based or functional assay
[8] = molecular target: RSV F glycoprotein of subgroup A isolate Bir/6190/′89 (respiratory syncytial virus, subgroup A); test: cell-based or functional assay
[9] = molecular target: RSV F glycoprotein of subgroup A isolate New/RSS-2/′76 (respiratory syncytial virus, subgroup A, UniProt P11209 26-574); test: cell-based or functional assay
[10] = molecular target: RSV F glycoprotein of subgroup A isolate Bir/1734/′89 (respiratory syncytial virus, subgroup A); test: cell-based or functional assay
[11] = molecular target: RSV F glycoprotein of subgroup B isolate WV/474R/′90 (respiratory syncytial virus, subgroup B); test: cell-based or functional assay
[12] = molecular target: RSV F glycoprotein of subgroup B isolate WV/1293/′75 (respiratory syncytial virus, subgroup B); test: cell-based or functional assay
[13] = molecular target: RSV F glycoprotein of subgroup B isolate WV/4843/′80 (respiratory syncytial virus, subgroup B); test: cell-based or functional assay
[14] = molecular target: RSV F glycoprotein of subgroup B isolate Wash/18537/′62 (respiratory syncytial virus, subgroup B, UniProt P13843 26-574); test: cell-based or functional assay
[15] = molecular target: RSV F glycoprotein of subgroup B isolate WV/14617/′85 (respiratory syncytial virus, subgroup B); test: cell-based or functional assay
[16] = molecular target: RSV F glycoprotein of subgroup B isolate WV/17154/′85 (respiratory syncytial virus, subgroup B); test: cell-based or functional assay
[17] = molecular target: RSV F glycoprotein of subgroup B isolate WV/20323/′87 (respiratory syncytial virus, subgroup B); test: cell-based or functional assay
[18] = molecular target: RSV F glycoprotein of subgroup B isolate WV/285R/′90 (respiratory syncytial virus, subgroup B); test: cell-based or functional assay
[19] = molecular target: RSV F glycoprotein of subgroup B isolate WV/401R/′90 (respiratory syncytial virus, subgroup B); test: cell-based or functional assay
[20] = molecular target: RSV F glycoprotein of subgroup B isolate WV/2B/′87 (respiratory syncytial virus, subgroup B); test: cell-based or functional assay
[21] = molecular target: RSV F glycoprotein of wild type RSV strain A2 (respiratory syncytial virus strain A2, UniProt P03420 26-574); test: cell-based or functional assay
[22] = molecular target: RSV F glycoprotein of MARM v1237 (strain A2 escape mutant, substitution at aa 276) (respiratory syncytial virus strain A2, UniProt P03420 26-574); test: cell-based or functional assay
[23] = molecular target: RSV F glycoprotein of MARM v1214 (strain A2 escape mutant, substitution at aa 276) (respiratory syncytial virus strain A2, UniProt P03420 26-574); test: cell-based or functional assay
[24] = molecular target: RSV F glycoprotein of MARM v1129 (strain A2 escape mutant, substitution at aa 275) (respiratory syncytial virus strain A2, UniProt P03420 26-574); test: cell-based or functional assay
[25] = molecular target: RSV F glycoprotein of MARM vN151 (strain A2 escape mutant, substitution at aa 272) (respiratory syncytial virus strain A2, UniProt P03420 26-574); test: cell-based or functional assay
[26] = molecular target: RSV F glycoprotein of MARM v1200 (strain A2 escape mutant, substitution at aa 272) (respiratory syncytial virus strain A2, UniProt P03420 26-574); test: cell-based or functional assay
[27] = molecular target: RSV F glycoprotein of MARM v1153 (strain A2 escape mutant, substitution at aa 262) (respiratory syncytial virus strain A2, UniProt P03420 26-574); test: cell-based or functional assay
[28] = molecular target: RSV F glycoprotein of MARM v324 (strain A2 escape mutant, arginine to serine at residue 429 of the F1 subunit) (respiratory syncytial virus strain A2, UniProt P03420 26-574, limits assumed); test: cell-based or functional assay

Chain of BSA (P02769 25-607 limits assumed): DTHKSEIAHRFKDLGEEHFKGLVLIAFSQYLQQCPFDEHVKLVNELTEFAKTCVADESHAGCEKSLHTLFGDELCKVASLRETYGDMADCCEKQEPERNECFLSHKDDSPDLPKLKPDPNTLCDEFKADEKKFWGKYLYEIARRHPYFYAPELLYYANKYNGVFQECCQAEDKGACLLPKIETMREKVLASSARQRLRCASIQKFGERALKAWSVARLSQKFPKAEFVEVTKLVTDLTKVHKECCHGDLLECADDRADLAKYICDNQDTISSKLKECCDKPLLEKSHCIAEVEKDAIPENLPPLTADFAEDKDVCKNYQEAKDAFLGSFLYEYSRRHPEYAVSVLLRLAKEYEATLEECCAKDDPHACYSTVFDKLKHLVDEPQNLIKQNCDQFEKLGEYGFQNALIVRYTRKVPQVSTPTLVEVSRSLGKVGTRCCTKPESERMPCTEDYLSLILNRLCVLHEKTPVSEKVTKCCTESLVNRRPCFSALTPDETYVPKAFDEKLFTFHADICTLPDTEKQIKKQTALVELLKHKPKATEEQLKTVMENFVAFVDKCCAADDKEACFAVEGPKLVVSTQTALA

B1: human monoclonal Fab RSVF2-5 (Fab, V domains shown)
VH: LEESGGDLVQPGRSLRLSCSTSGFSFGDYPVNWFRQAPGKGLEWLGIVRSRLYGGTLQYAASVEGRFTISRDDSKSIAYLHMNSLKSEDTAVYYCGVPVANIDYWGQGTLVTVSS
VL: LTQPHSVSESLGKTVTISCTRAGGRIASNYVQWYQQRPGSSPTTVIYEDNQRPFGVPDRFSGSIDTSSNSASLTISGLKTEDEADYYCQSYDSENPWVFGGGTKLTVLG
notes: CH1 and CL are therefore probably not in these entries; also called RSV Fab F2-5
binding result (BSA): no binding | Specific neutralization activity (µg/ml): purified Fab for 60% plaque reduction, Vero cells [1]: 3 µg/mL | Specific neutralization activity (µg/ml): purified Fab for 60% plaque reduction, Vero cells [2]: 1.6 µg/mL | Specific neutralization activity (µg/ml): purified Fab for 60% plaque reduction, Vero cells [3]: 0.6 µg/mL | Specific neutralization activity (µg/ml): purified Fab for 60% plaque reduction, Vero cells [4]: 0.2 µg/mL | Specific neutralization activity (µg/ml): purified Fab for 60% plaque reduction, Vero cells [5]: 0.9 µg/mL | Specific neutralization activity (µg/ml): purified Fab for 60% plaque reduction, Vero cells [6]: 0.4 µg/mL | Specific neutralization activity (µg/ml): purified Fab for 60% plaque reduction, Vero cells [7]: 1.4 µg/mL | Specific neutralization activity (µg/ml): purified Fab for 60% plaque reduction, Vero cells [8]: 2.4 µg/mL | Specific neutralization activity (µg/ml): purified Fab for 60% plaque reduction, Vero cells [9]: 1.9 µg/mL | Specific neutralization activity (µg/ml): purified Fab for 60% plaque reduction, Vero cells [10]: 1.1 µg/mL | Specific neutralization activity (µg/ml): purified Fab for 60% plaque reduction, Vero cells [11]: 0.9 µg/mL | Specific neutralization activity (µg/ml): purified Fab for 60% plaque reduction, Vero cells [12]: 1 µg/mL | Specific neutralization activity (µg/ml): purified Fab for 60% plaque reduction, Vero cells [13]: 0.5 µg/mL | Specific neutralization activity (µg/ml): purified Fab for 60% plaque reduction, Vero cells [14]: 0.5 µg/mL | Specific neutralization activity (µg/ml): purified Fab for 60% plaque reduction, Vero cells [15]: 2.6 µg/mL | Specific neutralization activity (µg/ml): purified Fab for 60% plaque reduction, Vero cells [16]: 2.1 µg/mL | Specific neutralization activity (µg/ml): purified Fab for 60% plaque reduction, Vero cells [17]: 0.8 µg/mL | Specific neutralization activity (µg/ml): purified Fab for 60% plaque reduction, Vero cells [18]: 0.6 µg/mL | Specific neutralization activity (µg/ml): purified Fab for 60% plaque reduction, Vero cells [19]: 0.7 µg/mL | Specific neutralization activity (µg/ml): purified Fab for 60% plaque reduction, Vero cells [20]: 0.3 µg/mL | Dose for 60% plaque reduction [21]: 0.1 µg/mL | Dose for 60% plaque reduction [22]: < 0.3 µg/mL | Dose for 60% plaque reduction [23]: 0.1 µg/mL | Dose for 60% plaque reduction [24]: 0.5 µg/mL | Dose for 60% plaque reduction [25]: 0.4 µg/mL | Dose for 60% plaque reduction [26]: 0.3 µg/mL | Dose for 60% plaque reduction [27]: 0.9 µg/mL | Dose for 60% plaque reduction [28]: > 18 µg/mL
